From the RNAGym collection of RNA variant scans (doi:10.7554/elife.80360) come the findings set out here.

B1: HDV Ribozyme (parent)
chain: GGCCGGCAUGGUCCCAGCCUCCUCGCUGGCGCCGGCUGGGCAACAUUCCGAGGGGACCGUCCCCUCGGUAAUGGCGAAUGGGACCCA

Variants of B1 are the subject of the series. As to the kind of experiment: self-cleavage, relative activity (ratio to wild type); higher = more cleavage; co-transcriptional.
With GGCCGGCAUGGUCCCAGCCUCCUCGCUGGCGCCGGAUGGGCAACAUUCCGAGGGGACUGUCCCCUCGGUAAUGGCGAAUGGGACCCA [C36A C58U], the self-cleavage amounted to 0.222. In the case of GGCCGGCAUGGUCACAGCCUCCUCGCUGGCGCCGGCUCGGCAACAUUCCGAGGGGACCGUCCCCUCGGUAAUGGCGAAUGGGACCCA [C14A G38C], the self-cleavage came out at 0.141. For GGCCGGCAUGGUCCCAGCCUCCUCGCUGGCGCCGGCUGGGCAACAAUCCGAGGGGACCGUCACCUCGGUAAUGGCGAAUGGGACCCA [U46A C62A] the value was 0.543; for GGCCGGCGUGGUCCCAGCCUCCUCGCUGGCGCCGGCUGGGCAACAUUCCGAUGGGACCGUCCCCUCGGUAAUGGCGAAUGGGACCCA [A8G G52U], 0.849; for GGCCGGCGUGGUCCCAGCCUCCUCGCUGGCGCCGGCUGGGCAACAUUCCGAGGGGACCGUCCCCUCGGUAUUGGCGAAUGGGACCCA [A8G A71U], 0.902. For GGCGAGCAUGGUCCCAGCCUCCUCGCUGGCGCCGGCUGGGCAACAUUCCGAGGGGACCGUCCCCUCGGUAAUGGCGAAUGGGACCCA [C4G G5A] the value was 0.0519; for GGCCGGCAUGGUCCCAACCUCCUUGCUGGCGCCGGCUGGGCAACAUUCCGAGGGGACCGUCCCCUCGGUAAUGGCGAAUGGGACCCA [G17A C24U], 0.26; for GGUCGGCAUGGUCCCAGCCUCCUCGCUGGCGCCGGCUGGGCAACAUUCGGAGGGGACCGUCCCCUCGGUAAUGGCGAAUGGGACCCA [C3U C49G], 0.68. For GGCCGGCAUGGUCCCAGCCUCCGCGCUGGCGCCGGCUGGGCAACAUUCCGAGGGGACCGUCCCAUCGGUAAUGGCGAAUGGGACCCA [U23G C64A] the value was 0.89.

For the variant GGCCGGCAUGGUCCUAGCCUCCUCGCUGGCGCCGGCUGGGCAACAUUCCGAGGGGACCGACCCCUCGGUAAUGGCGAAUGGGACCCA [C15U U60A], the self-cleavage is 1.15. The same measure for GGCCGGCAUGGUCCCAGCCUCCUCGCUGGCGCCGGCUGGGCAACAUUCCGAUGGGACCGUCCCCACGGUAAUGGCGAAUGGGACCCA [G52U U65A]: 0.82. For GGCCGGCAUGGUCCCAGCCGCCUCGCUGGCGCCCGCUGGGCAACAUUCCGAGGGGACCGUCCCCUCGGUAAUGGCGAAUGGGACCCA [U20G G34C], the self-cleavage was 0.138.

With GGCCGGCAUGGUCCCGGCCUCCUCGCUGGCGCCGUCUGGGCAACAUUCCGAGGGGACCGUCCCCUCGGUAAUGGCGAAUGGGACCCA [A16G G35U], the self-cleavage turned out to be 0.375.

Take GGCCGGCAUGGUCCCAGCCUCCUCGAUGGCGCCGGCUGGGCCACAUUCCGAGGGGACCGUCCCCUCGGUAAUGGCGAAUGGGACCCA [C26A A42C]: the self-cleavage was 0.227.

As for GGCCGGCAUGGUCCCAGCCUCCUCGAUGGCGCCCGCUGGGCAACAUUCCGAGGGGACCGUCCCCUCGGUAAUGGCGAAUGGGACCCA [C26A G34C], the self-cleavage stood at 0.111. For the variant GGCCGGCAUGGUCCCAGCCUCCUCACUGGCGCCGGCUGGGCAACAUUCCGAGGGGACCGUCCCCUUGGUAAUGGCGAAUGGGACCCA [G25A C66U], the self-cleavage stood at 0.338.

GGCCGGGAUGGUCCCAGCCUCCUCGCUGGCGCCGGCUGGGCACCAUUCCGAGGGGACCGUCCCCUCGGUAAUGGCGAAUGGGACCCA [C7G A43C]: the self-cleavage is 0.111.

With GGCCGGCAUUGUCCCAGCCUCCUCGCUGGCGCCGGCUGGGCGACAUUCCGAGGGGACCGUCCCCUCGGUAAUGGCGAAUGGGACCCA [G10U A42G], the self-cleavage was 0.325. The same measure for GGCCGGCAUGGUCCCAGCCUCAUCGCUGGCGCCGGCUGGGCAACAUUCCGAGGGGACCGUCCCCUCGGUAAUGGCGAAUGGGACCCA [C22A]: 0.306; for GGCCGGCAUGGUCCCACCCUCCUCGCUGGGGCCGGCUGGGCAACAUUCCGAGGGGACCGUCCCCUCGGUAAUGGCGAAUGGGACCCA [G17C C30G]: 0.684; for GGCCGGCAUGGUCCCAGCCUCCUCGCUGGCGCCGGCUGGGAAACAUUCCGAGGGGACCGUCCCCUCGGUAAUGGCGAAUGGGUCCCA [C41A A83U]: 0.35. The same measure for GGCCGGCAUGGUCCCAGCCUCCUCGCUGGCGCCGGCUGGGCAACCUUCCGAGGGGACCGUCCCCUCGGGAAUGGCGAAUGGGACCCA [A45C U69G]: 0.974; for GGCCGGCAUGGUCCCAGCCUCCUCGCUGGCGCCGGCUGGGCAGCAUUCCGAGGGGACCGUCCCCUCGGUUAUGGCGAAUGGGACCCA [A43G A70U]: 0.743; for GGCCGGCAUGGUACCAGCCUCCUCGCUGGCGCCGGCUGGGCAACAUUCCGAGGGGACCGUCCCCUCGGUAAAGGCGAAUGGGACCCA [C13A U72A]: 0. The same measure for GGCCGGCAUGGUCCCAGCCUCCUCGCUGGCGCCGGCUGGGCAACAUUCCGUGGGGACCGUCUCCUCGGUAAUGGCGAAUGGGACCCA [A51U C62U]: 1.09. Consider GGCCGGCAUGGUUCCAGCCUCCUCGCUGGCGCCGGCUGGGCAACAUUCCGAGGGGACCGUCCCCUCGGUAAUGGCUAAUGGGACCCA [C13U G76U], for which the self-cleavage is 0.813. For GGCCGGCAUGGUCCCAGCCUCCUCGCUGGCGCCGGCUGGGCAACAUUCCGAGGGGAACGUCCCCUCGGUAAUGGUGAAUGGGACCCA [C57A C75U] the value was 0.0978; for GGCCGGCAUGGUCCCAACCUCCUCGCUGGCGCCGGCUGGGCAACAUCCCGAGGGGACCGUCCCCUCGGUAAUGGCGAAUGGGACCCA [G17A U47C], 0.587. For GGCGGGCAUGGUCCCAGCCUCCUCGAUGGCGCCGGCUGGGCAACAUUCCGAGGGGACCGUCCCCUCGGUAAUGGCGAAUGGGACCCA [C4G C26A] the value was 0.569; for GGCCGGCAUGGUCCCAGCCUCCUCGCUGGCGCCGGCUGGGCAACAUUACGAGGGGACCGUCCCCUCGGUAAUGGGGAAUGGGACCCA [C48A C75G], 0.142.

GGCCGGCAUGGUCCCAGCCUCCUCGUUGGCGCCGGCUGGGCAACAUUCCGAGGGGACCGUCCCCUCUGUAAUGGCGAAUGGGACCCA [C26U G67U]: the self-cleavage is 0.686. The same measure for GGCCAGCAUGGUCCCAGCCUCCUCGCUGGCGCCGGCUGGGCAACACUCCGAGGGGACCGUCCCCUCGGUAAUGGCGAAUGGGACCCA [G5A U46C]: 0.185.
